From article PMC3307728

T1: DEAF1-FLAG (human, UniProt O75398 1-565)
T1 sequence: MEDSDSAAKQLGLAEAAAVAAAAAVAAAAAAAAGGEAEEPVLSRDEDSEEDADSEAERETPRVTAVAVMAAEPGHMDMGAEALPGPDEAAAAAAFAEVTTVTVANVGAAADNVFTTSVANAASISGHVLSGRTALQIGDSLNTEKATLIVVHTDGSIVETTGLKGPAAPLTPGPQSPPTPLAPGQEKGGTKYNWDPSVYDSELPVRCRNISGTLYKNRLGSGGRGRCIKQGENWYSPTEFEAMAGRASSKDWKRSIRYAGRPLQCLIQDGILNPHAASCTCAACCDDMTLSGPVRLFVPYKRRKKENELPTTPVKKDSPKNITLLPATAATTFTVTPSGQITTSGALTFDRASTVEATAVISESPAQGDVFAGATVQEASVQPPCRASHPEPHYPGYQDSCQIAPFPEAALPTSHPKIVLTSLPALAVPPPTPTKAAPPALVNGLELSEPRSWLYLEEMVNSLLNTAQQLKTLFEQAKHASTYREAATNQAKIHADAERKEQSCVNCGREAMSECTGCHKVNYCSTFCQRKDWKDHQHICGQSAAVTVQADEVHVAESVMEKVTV

B1: N52-69 (dsDNA)
DNA 1: TTCGGCTTCCCACTTCGG
DNA 2: CCGAAGTGGGAAGCCGAA
B2: Mut 2 (dsDNA)
DNA 1: TTTTGCTTCCCACTTTTG
DNA 2: CAAAAGTGGGAAGCAAAA

How the values were obtained:
Ku70;FLAG-Ku80 = Ku70;FLAG-Ku80 (human?;human?, UniProt P12956;P13010 1-609;1-732, |); test: EMSA; DNA end binding; EMSA: 100 mM KCl, 50 mM Tris pH 7.5, 1 mM DTT, 25 °C, 30 min protein preincubation then 30 min with 32P probe; 4% native gel; details: protein: recombinant;recombinant; tags: none;FLAG (N-terminal, from the name); copies: 1;1; label: 32P in EMSA
DEAF1-FLAG [1] = target: T1, DEAF1-FLAG; test: EMSA; doublet of shifted bands; EMSA: 100 mM KCl, 50 mM Tris pH 7.5, 1 mM DTT, 25 °C, 30 min protein preincubation then 30 min with 32P probe; 4% native gel; details: protein: recombinant; tags: FLAG (C-terminal, from the name DEAF1-FLAG; also written FLAG-DEAF1); chain copies: 2; label: 32P in EMSA
DEAF1-FLAG [2] = target: T1, DEAF1-FLAG; test: EMSA; no shift; EMSA: 100 mM KCl, 50 mM Tris pH 7.5, 1 mM DTT, 25 °C, 30 min protein preincubation then 30 min with 32P probe; 4% native gel; details: protein: recombinant; tags: FLAG (C-terminal, from the name DEAF1-FLAG; also written FLAG-DEAF1); chain copies: 2; label: 32P in EMSA

Sequence of Ku70;FLAG-Ku80 (P12956 whole entry, chain 1 of 2): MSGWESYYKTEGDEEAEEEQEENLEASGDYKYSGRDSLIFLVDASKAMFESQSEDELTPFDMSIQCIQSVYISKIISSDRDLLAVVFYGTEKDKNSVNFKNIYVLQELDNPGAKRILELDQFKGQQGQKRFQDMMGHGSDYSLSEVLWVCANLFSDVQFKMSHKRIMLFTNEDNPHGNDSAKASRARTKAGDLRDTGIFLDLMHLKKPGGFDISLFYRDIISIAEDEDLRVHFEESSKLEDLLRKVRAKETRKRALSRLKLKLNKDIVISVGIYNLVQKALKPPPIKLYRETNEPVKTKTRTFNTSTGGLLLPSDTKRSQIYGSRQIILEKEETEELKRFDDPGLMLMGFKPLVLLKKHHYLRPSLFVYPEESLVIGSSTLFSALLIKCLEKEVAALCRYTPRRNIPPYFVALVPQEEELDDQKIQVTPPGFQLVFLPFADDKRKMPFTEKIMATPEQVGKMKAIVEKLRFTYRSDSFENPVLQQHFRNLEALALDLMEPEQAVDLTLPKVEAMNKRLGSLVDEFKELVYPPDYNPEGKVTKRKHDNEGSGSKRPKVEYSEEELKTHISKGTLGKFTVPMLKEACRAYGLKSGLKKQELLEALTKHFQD
Sequence of Ku70;FLAG-Ku80 (P13010 whole entry, chain 2 of 2): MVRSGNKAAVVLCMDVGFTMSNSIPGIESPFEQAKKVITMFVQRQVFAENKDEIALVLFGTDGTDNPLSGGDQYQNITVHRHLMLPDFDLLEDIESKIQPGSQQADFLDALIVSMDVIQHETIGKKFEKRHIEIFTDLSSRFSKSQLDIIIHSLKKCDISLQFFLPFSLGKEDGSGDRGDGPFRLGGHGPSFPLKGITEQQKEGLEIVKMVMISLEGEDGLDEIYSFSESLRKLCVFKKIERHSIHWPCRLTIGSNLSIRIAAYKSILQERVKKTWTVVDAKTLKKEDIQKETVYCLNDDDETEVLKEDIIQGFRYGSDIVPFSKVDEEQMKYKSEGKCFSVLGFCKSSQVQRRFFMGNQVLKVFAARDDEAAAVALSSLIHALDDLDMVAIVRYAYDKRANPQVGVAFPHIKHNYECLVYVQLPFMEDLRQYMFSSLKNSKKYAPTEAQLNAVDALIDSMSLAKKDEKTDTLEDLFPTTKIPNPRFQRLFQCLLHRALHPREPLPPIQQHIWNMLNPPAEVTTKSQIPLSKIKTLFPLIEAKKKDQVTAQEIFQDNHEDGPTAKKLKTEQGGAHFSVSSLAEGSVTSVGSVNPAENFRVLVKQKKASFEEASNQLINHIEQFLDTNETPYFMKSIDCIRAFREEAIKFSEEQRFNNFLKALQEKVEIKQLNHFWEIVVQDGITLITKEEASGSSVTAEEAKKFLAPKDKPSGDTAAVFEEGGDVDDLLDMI

Binder	binding result (Ku70;FLAG-Ku80)	binding result (DEAF1-FLAG [1])	binding result (DEAF1-FLAG [2])
B1	binds	binds	
B2	binds		no binding
